Laboratory results reported in patent US20230257472A1.

B1: F4 phage display single-chain antibody (scFv, part only; not given: scFv linker, phage partner, tag, V domains shown, not shown: another chain or arm of the molecule; large carriers; small tags and cut ends)
VH: QVQLKQSGAELVKPGASVKMSCKASGDTFPRYNMHWLKQTPGQGLEWIGAIFPGNGETSYNQNFKGKATLTADKSSSTAYMQLNSLTSEDSAVYYCARNSYYDYAWFTYWGQGTLVTVSA
VL: DIVMTQSPASLDVSLGQRATISCRASKSVSSSGYSFMHWYQQKPGQPPKLLISLASNLESGVPARFSGSGSGTDFTLTIYPVEEEDAATYYCQHSREFPPTFGSGTKLEIK
B2: B7 phage display single-chain antibody (scFv, part only; not given: linker; VH end may be cut, part only)
scFv, part: QIQLVQSGPELKKPGETVKISCKTSGYTFTNYGMNWVRQAPGKGLKWMGWINTYTGEPTYADDFKGRFAFSLETSAGTAYLQINNLENEDTATYFCARGDSFTTEILRNWYFDVWGAGTTDIQMTQTPASLSASVGETVTITCGASENIYGALNWYQRKQGKSPQLLIYGATNLADGMSSRFSGSGSGRQYSLKISSLHPDDVATYYCQNVLSTPWTFGGGTKLEMK
B3: B1 phage display single-chain antibody (scFv, part only; not given: scFv linker, phage partner, tag, V domains shown, not shown: another chain or arm of the molecule; large carriers; small tags and cut ends)
VH: QVQMQQSGAELVKPGASVMMSCKASGYTFTTYNIHWIKQTPGQGLEWIGDIYPGNGDASYNQKFRDRATLTADRSSSTAYLQLSSLTSEDSAIYYCATFSRFDGWFAYWGQGTLVTVSA
VL: DIVMSQSPASLAVSLGQRATISCRASRSVSTSGYSYMHWYQQKPGQPPKLLIYLASNLESGVPARFSGSGSGTNFTLNIHPVEEEDAATYYCQHSRELPYTFGGGTKLEIK

The binders below were run against His-tagged CD70 protein extracellular domain (His-TNC-CD70) (human) (assay: phage ELISA, 2 ug/mL His-TNC-CD70 coated, anti-M13-HRP).
His-tagged CD70 protein extracellular domain (His-TNC-CD70) (human), sequence (chain, as listed by the source limits assumed): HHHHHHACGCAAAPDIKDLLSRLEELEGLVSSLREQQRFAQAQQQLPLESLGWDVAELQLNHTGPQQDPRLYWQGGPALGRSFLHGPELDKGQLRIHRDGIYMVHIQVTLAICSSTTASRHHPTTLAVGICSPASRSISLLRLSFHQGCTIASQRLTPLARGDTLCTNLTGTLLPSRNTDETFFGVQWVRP

In order of rising Reading at OD450 nm of microplate reader:
1. B1  1.09 OD450
2. B3  1.16 OD450
3. B2  1.97 OD450
